Test results published in IntAct's records for PubMed 29039417.

B1: BBSome-interacting protein 1 (Homo sapiens), A8MTZ0 (parent)
chain: MLKAAAKRPELSGKNTISNNSDMAEVKSMFREVLPKQGPLFVEDIMTMVLCKPKLLPLKSLTLEKLEKMHQAAQNTIRQQEMAEKDQRQITH
partner: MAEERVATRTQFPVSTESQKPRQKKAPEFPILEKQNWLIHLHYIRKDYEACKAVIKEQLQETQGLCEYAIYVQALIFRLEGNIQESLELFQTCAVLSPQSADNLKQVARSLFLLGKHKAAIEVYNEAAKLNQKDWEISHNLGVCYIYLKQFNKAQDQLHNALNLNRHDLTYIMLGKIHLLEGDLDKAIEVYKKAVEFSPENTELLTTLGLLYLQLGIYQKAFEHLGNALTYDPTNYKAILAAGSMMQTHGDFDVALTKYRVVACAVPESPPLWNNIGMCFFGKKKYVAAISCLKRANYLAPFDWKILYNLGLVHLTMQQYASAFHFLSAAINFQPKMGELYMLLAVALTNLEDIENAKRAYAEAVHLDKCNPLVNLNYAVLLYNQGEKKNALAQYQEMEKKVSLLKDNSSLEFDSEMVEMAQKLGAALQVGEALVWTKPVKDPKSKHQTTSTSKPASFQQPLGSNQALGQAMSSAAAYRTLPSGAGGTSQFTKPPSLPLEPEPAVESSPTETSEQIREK

Variants of: B1
Settings: with bbs4_human BBS4, Q96RK4

| Variant | effect of a mutation on the interaction |
| --- | --- |
| MLKAAAKRPELSGKNTISNNSDMAEEKSMFREVLPKQGPLFVEDIMTMVLCKPKLLPLKSLTLEKLEKMHQAAQNTIRQQEMAEKDQRQITH [V26E] | with no effect |
| MLKAAAKRPELSGKNTISNNSDMAEVKSMFREVLPKQGPLFVEDIMTMVLCKPKLLKLKSLTLEKLEKMHQAAQNTIRQQEMAEKDQRQITH [P57K] | with no effect |
| MLKAAAKRPELSGKNTISNNSDMAEVKSMFREVLPKQGPLFVEDIMTEVLCKPKLLPLKSLTLEKLEKMHQAAQNTIRQQEMAEKDQRQITH [M48E] | with no effect |
| MLKAAAKRPELSGKNTISNNSDMAEVKSMFREVLPKEGPLFVEDIMTMVLCKPKLLPLKSLTLEKLEKMHQAAQNTIRQQEMAEKDQRQITH [Q37E] | with no effect |
| MLKAAAKRPELSGKNTISNNKDMAEVKSMFREVLPKQGPLFVEDIMTMVLCKPKLLPLKSLTLEKLEKMHQAAQNTIRQQEMAEKDQRQITH [S21K] | with no effect |
| MLKAAAKRPEKSGKNTISNNSDMAEVKSMFREVLPKQGPLFVEDIMTMVLCKPKLLPLKSLTLEKLEKMHQAAQNTIRQQEMAEKDQRQITH [L11K] | with no effect |
| MLKAAAKRPELSGKNTISNNSDMAEVKSMFREVAPKQGPLFVEDIMTMVLCKPKLLPLKSLTLEKLEKMHQAAQNTIRQQEMAEKDQRQITH [L34A] | disrupting interaction strength |
| MLKAAAKRPELSGKNTISNNSDMAEVKSMFAEVLPKQGPLFVEDIMTMVLCKPKLLPLKSLTLEKLEKMHQAAQNTIRQQEMAEKDQRQITH [R31A] | with no effect |
| MLAAAAKRPELSGKNTISNNSDMAEVKSMFREVLPKQGPLFVEDIMTMVLCKPKLLPLKSLTLEKLEKMHQAAQNTIRQQEMAEKDQRQITH [K3A] | with no effect |
| MLKAAAKRPELSGKNTISNNSDMAEVKSMFREVLPKQGPLFVEDIMTMVLCKPKLLPLKSLTLEKLEKMHQEAQNTIRQQEMAEKDQRQITH [A72E] | with no effect |
| MLKAAAKRPELSGKNTISNNSDMAEVKSMFREVLPKQGPLFVEDIMTMVLCKPKLLPLKSLTLEKLEKMHQKAQNTIRQQEMAEKDQRQITH [A72K] | with no effect |
| MLKAAAKRPELSGKNTISNNSDMAEVKSMFREVLPKQGPLFVEDIMTMVLSKPKLLPLKSLTLEKLEKMHQAAQNTIRQQEMAEKDQRQITH [C51S] | disrupting interaction strength |
| MLKAAAKRPELSGKNTISNNSDMAEVKSMFREVLPKQGPLFVEDIMTMVLCKPKLLPLKSLTLEKLEKMHQAAQNTIRQQEMAEKDQEQITH [R88E] | with no effect |
| MLKAAAKRPELSGKNTISNNSDMAEVKSMFREVLPKQGPLFVEDIMTMVLCKPKLLPLKSLTLEKLEKMHQAAENTIRQQEMAEKDQRQITH [Q74E] | with no effect |
| MLKAAAKRPELSGKNTISNNSDMAEVKSMFREVLPKQGPLFVEDIMTMVLCKPKLLPLKSLTLEKLEKMHQAAKNTIRQQEMAEKDQRQITH [Q74K] | with no effect |
| MLKAAAKRPELSGKNTISNNSDMAEVKSMFREVLPKQGPLFVEDIMRMVLCKPKLLPLKSLTLEKLEKMHQAAQNTIRQQEMAEKDQRQITH [T47R] | disrupting interaction strength |
| MLKAAAKRPELSGKNTISNNSDMAEVKSMFREVLPKQGPLFVEDIMKMVLCKPKLLPLKSLTLEKLEKMHQAAQNTIRQQEMAEKDQRQITH [T47K] | with no effect |
| MLKAAAKRPELSGKNTISNNSDMAEVKSMFREVLPKQGPLFVEDIMTMVLCKPKLLPLKSLTLEKLEKMHQAAQNTIRQQEMAEADQRQITH [K85A] | with no effect |
| MLKAAAARPELSGKNTISNNSDMAEVKSMFREVLPKQGPLFVEDIMTMVLCKPKLLPLKSLTLEKLEKMHQAAQNTIRQQEMAEKDQRQITH [K7A] | with no effect |
| MLKAAAKRPELSGKNTISNNSDMAEVKSMFREVLPKQGPLFVEDIMTMVLCKPKLLPLKSLTLEKLEKMHQAAQNAIRQQEMAEKDQRQITH [T76A] | with no effect |
| MLKAAAKRPELSGKNTISNNSDMAEVKSMFREVLPKQGPLFVEDIMTMVLCKPKLLPLKKLTLEKLEKMHQAAQNTIRQQEMAEKDQRQITH [S60K] | with no effect |
| MLKAAAKRPELSGKNTISNNSDMAEVKSMFREVLPKQGPLFVEDIMTMVLCKPYLLPLKSLTLEKLEKMHQAAQNTIRQQEMAEKDQRQITH [K54Y] | disrupting interaction strength |
| MLKAAAKRPELSGKNTISNNSDMAEVKSMFREVLPKQGPLFVEDIMTMVLCKPKLLPLKSLTLEKLEKMHQAAQNTIRQQEMAEKDKRQITH [Q87K] | with no effect |
| MLKAAAKRPELSGKNTISNNSDMAEVKSMFREVLPKQGPLFVEDIMTMVLCKPKLLPLKSLTLEKLEKMHQAKQNTIRQQEMAEKDQRQITH [A73K] | with no effect |
| MLKAAAKRPELSGKNTISNNSDMAEVLSMFREVLPKQGPLFVEDIMTMVLCKPKLLPLKSLTLEKLEKMHQAAQNTIRQQEMAEKDQRQITH [K27L] | disrupting interaction strength |
| MLKAAAKRPELSGKNTISNNSDMAEVKSMFREVLPKQGPLFVEDIMTMVLCKPKLLPLKSLTLEKLEKMHQAAQNTIRQQEMKEKDQRQITH [A83K] | with no effect |
